B1: GpH7-TA22/GpH7-B78/GpL16-k0 (antibody, human IgG1, kappa)
heavy 1: QVQLVQSGAEVKKPGASVTVSCKASGYTFTDYEMHWIRQPPGEGLEWIGAIDPKTGDTAYSESFQDRVTLTADKSTSTAYMELSSLTSEDTAVYYCTRFYSYTYWGQGTLVTVSSASTKGPSVFPLAPSSKSTSGGTAALGCLVKDYFPEPVTVSWNSGALTSGVHTFPAVLQSSGLYSLSSVVTVPSSSLGTQTYICNVNHKPSNTKVDKKVEPKSCDKTHTCPPCPAPEYLWGPDVFLFPPKPKDTLMISRTPEVTCVVVDVSHEDPEVKFNWYVDGVEVHNAKTKPREEQYNATYRVVSVLTVLHQDWLNGKEYKCKVSNKALPAPIEKTISKAKGQPREPQVYTLPPSRKELTKNQVSLTCLVKGFYPSDIAVEWESNGQPENNYKTTPPVLDSDGSFFLYSKLTVDKSRWQQGNVFSCSVMHEALHNRYTQKSLSLSP
heavy 2: QVQLVQSGAEVKKPGASVTVSCKASGYTFTDYEMHWIRQPPGEGLEWIGAIDPKTGDTAYSESFQDRVTLTADKSTSTAYMELSSLTSEDTAVYYCTRFYSYTYWGQGTLVTVSSASTKGPSVFPLAPSSKSTSGGTAALGCLVKDYFPEPVTVSWNSGALTSGVHTFPAVLQSSGLYSLSSVVTVPSSSLGTQTYICNVNHKPSNTKVDKKVEPKSCDKTHTCPPCPAPELLGGPDVFLFPPKPKDTLMISRTPEVTCVVVDVSHEDPEVKFNWYVDGVEVHNAKTKPREEQYNSTYRVVSVLTVLHQDWLNGKEYKCKVSNKALPLPEEKTISKAKGQPREPQVYTLPPSRDELTKNQVSLTCLVKGFYPSDIAVEWESNGQPENNYKTTPPVLDSDGSFFLYSKLTVDKSRWQQGNVFSCSVMHEALHNHYTQESLSLSP
light: DIVMTQSPLSLPVTPGEPASISCQASESLVHSNRNTYLHWYLQKPGQSPQLLIYKVSNRFSGVPDRFSGSGSGTDFTLKISRVEAEDVGVYYCSQNTHVPPTFGQGTKVEIERTVAAPSVFIFPPSDEQLKSGTASVVCLLNNFYPREAKVQWKVDNALQSGNSQESVTEQDSKDSTYSLSSTLTLSKADYEKHKVYACEVTHQGLSSPVTKSFNRGEC
notes: Anti-glypican-3 IgG1 heterodimer; L234Y/G236W/S239D/S298A in H1, S239D/A330L/I332E in H2
B2: GpH7-B14/GpL16-k0 (antibody, human IgG1, kappa)
heavy: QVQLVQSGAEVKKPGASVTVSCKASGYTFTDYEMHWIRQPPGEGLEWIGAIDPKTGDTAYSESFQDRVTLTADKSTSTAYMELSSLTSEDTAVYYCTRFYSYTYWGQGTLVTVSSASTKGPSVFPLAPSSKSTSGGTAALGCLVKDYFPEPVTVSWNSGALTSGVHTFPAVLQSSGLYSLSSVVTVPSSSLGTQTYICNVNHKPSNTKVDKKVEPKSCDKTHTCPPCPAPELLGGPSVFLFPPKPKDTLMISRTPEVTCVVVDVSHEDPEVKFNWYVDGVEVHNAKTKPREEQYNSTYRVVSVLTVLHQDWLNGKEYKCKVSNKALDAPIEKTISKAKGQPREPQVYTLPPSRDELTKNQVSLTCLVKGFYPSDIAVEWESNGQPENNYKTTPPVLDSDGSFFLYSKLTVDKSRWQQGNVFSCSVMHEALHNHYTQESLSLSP
light: DIVMTQSPLSLPVTPGEPASISCQASESLVHSNRNTYLHWYLQKPGQSPQLLIYKVSNRFSGVPDRFSGSGSGTDFTLKISRVEAEDVGVYYCSQNTHVPPTFGQGTKVEIERTVAAPSVFIFPPSDEQLKSGTASVVCLLNNFYPREAKVQWKVDNALQSGNSQESVTEQDSKDSTYSLSSTLTLSKADYEKHKVYACEVTHQGLSSPVTKSFNRGEC
notes: P329D in both H chains
B3: GpH7-B15/GpL16-k0 (antibody, human IgG1, kappa)
heavy: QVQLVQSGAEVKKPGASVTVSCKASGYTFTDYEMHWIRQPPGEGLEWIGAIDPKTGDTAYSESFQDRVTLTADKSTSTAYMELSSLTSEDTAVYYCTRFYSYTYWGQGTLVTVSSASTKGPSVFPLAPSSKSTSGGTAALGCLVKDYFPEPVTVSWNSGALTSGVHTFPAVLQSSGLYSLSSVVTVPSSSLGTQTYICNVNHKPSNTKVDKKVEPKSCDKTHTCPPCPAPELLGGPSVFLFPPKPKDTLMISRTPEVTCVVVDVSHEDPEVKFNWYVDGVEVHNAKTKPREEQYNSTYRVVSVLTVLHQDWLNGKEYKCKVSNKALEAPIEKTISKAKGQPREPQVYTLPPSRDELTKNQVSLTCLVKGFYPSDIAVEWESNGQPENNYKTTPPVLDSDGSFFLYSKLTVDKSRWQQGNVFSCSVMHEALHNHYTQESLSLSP
light: DIVMTQSPLSLPVTPGEPASISCQASESLVHSNRNTYLHWYLQKPGQSPQLLIYKVSNRFSGVPDRFSGSGSGTDFTLKISRVEAEDVGVYYCSQNTHVPPTFGQGTKVEIERTVAAPSVFIFPPSDEQLKSGTASVVCLLNNFYPREAKVQWKVDNALQSGNSQESVTEQDSKDSTYSLSSTLTLSKADYEKHKVYACEVTHQGLSSPVTKSFNRGEC
notes: P329E in both H chains
B4: GpH7-TA40/GpH7-B78/GpL16-k0 (antibody, human IgG1, kappa)
heavy 1: QVQLVQSGAEVKKPGASVTVSCKASGYTFTDYEMHWIRQPPGEGLEWIGAIDPKTGDTAYSESFQDRVTLTADKSTSTAYMELSSLTSEDTAVYYCTRFYSYTYWGQGTLVTVSSASTKGPSVFPLAPSSKSTSGGTAALGCLVKDYFPEPVTVSWNSGALTSGVHTFPAVLQSSGLYSLSSVVTVPSSSLGTQTYICNVNHKPSNTKVDKKVEPKSCDKTHTCPPCPAPEYLWGPSVFLFPPKPKDTLMISRTPEVTCVVVDVSHEDPEVKFNWYVDGVEVHNAKTKPREEQYNATYRVVSVLTVLHQDWLNGKEYKCKVSNKALPAPIEGTISKAKGQPREPQVYTLPPSRKELTKNQVSLTCLVKGFYPSDIAVEWESNGQPENNYKTTPPVLDSDGSFFLYSKLTVDKSRWQQGNVFSCSVMHEALHNRYTQKSLSLSP
heavy 2: QVQLVQSGAEVKKPGASVTVSCKASGYTFTDYEMHWIRQPPGEGLEWIGAIDPKTGDTAYSESFQDRVTLTADKSTSTAYMELSSLTSEDTAVYYCTRFYSYTYWGQGTLVTVSSASTKGPSVFPLAPSSKSTSGGTAALGCLVKDYFPEPVTVSWNSGALTSGVHTFPAVLQSSGLYSLSSVVTVPSSSLGTQTYICNVNHKPSNTKVDKKVEPKSCDKTHTCPPCPAPELLGGPDVFLFPPKPKDTLMISRTPEVTCVVVDVSHEDPEVKFNWYVDGVEVHNAKTKPREEQYNSTYRVVSVLTVLHQDWLNGKEYKCKVSNKALPLPEEKTISKAKGQPREPQVYTLPPSRDELTKNQVSLTCLVKGFYPSDIAVEWESNGQPENNYKTTPPVLDSDGSFFLYSKLTVDKSRWQQGNVFSCSVMHEALHNHYTQESLSLSP
light: DIVMTQSPLSLPVTPGEPASISCQASESLVHSNRNTYLHWYLQKPGQSPQLLIYKVSNRFSGVPDRFSGSGSGTDFTLKISRVEAEDVGVYYCSQNTHVPPTFGQGTKVEIERTVAAPSVFIFPPSDEQLKSGTASVVCLLNNFYPREAKVQWKVDNALQSGNSQESVTEQDSKDSTYSLSSTLTLSKADYEKHKVYACEVTHQGLSSPVTKSFNRGEC
notes: Heterodimerized anti-glypican-3 IgG1 antibody; K334G is in the same H chain as L234Y/G236W/S298A; also called TA40/B78
B5: GpH7-TA7/GpH7-TA50/GpL16-k0 (antibody, human IgG1, kappa)
heavy 1: QVQLVQSGAEVKKPGASVTVSCKASGYTFTDYEMHWIRQPPGEGLEWIGAIDPKTGDTAYSESFQDRVTLTADKSTSTAYMELSSLTSEDTAVYYCTRFYSYTYWGQGTLVTVSSASTKGPSVFPLAPSSKSTSGGTAALGCLVKDYFPEPVTVSWNSGALTSGVHTFPAVLQSSGLYSLSSVVTVPSSSLGTQTYICNVNHKPSNTKVDKKVEPKSCDKTHTCPPCPAPEYLWGPSVFLFPPKPKDTLMISRTPEVTCVVVDVSHEDPEVKFNWYVDGVEVHNAKTKPREEQYNATYRVVSVLTVLHQDWLNGKEYKCKVSNKALPAPIEKTISKAKGQPREPQVYTLPPSRKELTKNQVSLTCLVKGFYPSDIAVEWESNGQPENNYKTTPPVLDSDGSFFLYSKLTVDKSRWQQGNVFSCSVMHEALHNRYTQKSLSLSP
heavy 2: QVQLVQSGAEVKKPGASVTVSCKASGYTFTDYEMHWIRQPPGEGLEWIGAIDPKTGDTAYSESFQDRVTLTADKSTSTAYMELSSLTSEDTAVYYCTRFYSYTYWGQGTLVTVSSASTKGPSVFPLAPSSKSTSGGTAALGCLVKDYFPEPVTVSWNSGALTSGVHTFPAVLQSSGLYSLSSVVTVPSSSLGTQTYICNVNHKPSNTKVDKKVEPKSCDKTHTCPPCPAPELLGGPDVFLFPPKPKDTLMISRTPEVTCVVVDVSHEDPEVKFNWYVDGVEVHNAKTKPREEQYNSTYRVVSVLTVLHQDWLNGKEYKCKVSNKALPLPEEGTISKAKGQPREPQVYTLPPSRDELTKNQVSLTCLVKGFYPSDIAVEWESNGQPENNYKTTPPVLDSDGSFFLYSKLTVDKSRWQQGNVFSCSVMHEALHNHYTQESLSLSP
light: DIVMTQSPLSLPVTPGEPASISCQASESLVHSNRNTYLHWYLQKPGQSPQLLIYKVSNRFSGVPDRFSGSGSGTDFTLKISRVEAEDVGVYYCSQNTHVPPTFGQGTKVEIERTVAAPSVFIFPPSDEQLKSGTASVVCLLNNFYPREAKVQWKVDNALQSGNSQESVTEQDSKDSTYSLSSTLTLSKADYEKHKVYACEVTHQGLSSPVTKSFNRGEC
notes: Heterodimerized anti-glypican-3 IgG1 antibody; K334G is in the H chain other than the one with L234Y/G236W/S298A; also called TA7/TA50

How the values were obtained:
FcγRIIIa [1] = target: T1, FcγRIIIa (human, UniProt P08637 17-208); assay: ratio of SPR KDs: KD of GpH7-TA7/GpH7-B78/GpL16-k0 divided by KD of this antibody
T1 construct: extracellular domain; also called FcgRIIIa; CD16A; not shown: His tag attached to the C terminus
Procedure: (§1) Analysis of interaction between objective antibody and the FcγR was carried out using Biacore T100 (GE Healthcare). HBS-EP+ (GE Healthcare) was used as the running buffer, and the measurement temperature was set to 25° C. Chips produced by immobilizing the antigen peptide by the amine coupling method to a Series S Sencor Chip CM5 (GE Healthcare), or alternatively, chips produced by allowing preliminarily biotinylated antigen peptides to interact with and immobilize onto a Series S Sensor Chip SA (certified) (GE Healthcare) were used. Antibodies of interest were captured onto an antigen peptide-immobilized chip, and allowed to interact to each FcγR diluted with running buffer. To regenerate and repeatedly use the chip, the antibodies captured on the chip were washed off by reacting 10 mM glycine-HCl, pH 1.5.
Specifically, to calculate association rate constant ka (L/mol/s) and dissociation rate constant kd (1/s), sensorgrams obtained by measurement were processed for global fitting by Biacore Evaluation Software using 1:1 Langmuir binding model and dissociation constant KD (mol/1) was calculated from the resulting values.
T1 sequence (P08637 17-208): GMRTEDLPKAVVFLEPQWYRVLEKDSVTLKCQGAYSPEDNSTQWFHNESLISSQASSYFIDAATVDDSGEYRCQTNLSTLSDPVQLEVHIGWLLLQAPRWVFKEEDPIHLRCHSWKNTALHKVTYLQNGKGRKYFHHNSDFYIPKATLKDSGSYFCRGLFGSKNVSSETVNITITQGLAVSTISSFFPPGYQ

FcγRIIIa [2] = target: T1, FcγRIIIa; assay: ratio of SPR KDs: KD of GpH7-TA22/GpH7-B78/GpL16-k0 divided by KD of this antibody
Source text: Then, GpH7-TA54 (SEQ ID NO: 46) resulting from the introduction of Y296W into GpH7-TA22 was constructed, and expressed and prepared in combination with GpH7-B78 according to the method described in Reference Example 1. Furthermore, GpH7-TA58 (SEQ ID NO: 45) resulting from the introduction of Y296W into GpH7-B78 was constructed, and expressed and prepared in combination with GpH7-TA22 according to the method described in Reference Example 1. To assess the effect of combination with Y296W, the prepared antibodies were compared for the FcγRIIIa-binding activity according to the method described in Reference Example 2 (Table 17).
as §1

FcγRIa = FcγRIa (human, UniProt P12314 16-292); assay: SPR (Biacore), relative binding
Chain of FcγRIa (P12314 16-292): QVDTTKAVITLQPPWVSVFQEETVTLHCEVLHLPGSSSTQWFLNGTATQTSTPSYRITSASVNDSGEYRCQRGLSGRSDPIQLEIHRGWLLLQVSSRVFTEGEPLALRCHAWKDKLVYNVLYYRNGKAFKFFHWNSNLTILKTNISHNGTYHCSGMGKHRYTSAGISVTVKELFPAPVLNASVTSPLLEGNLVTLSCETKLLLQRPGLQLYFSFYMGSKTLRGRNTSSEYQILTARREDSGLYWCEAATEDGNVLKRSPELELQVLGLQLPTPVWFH

FcγRIIIa [3] = target: T2, FcγRIIIa (human, UniProt P08637 17-208); assay: SPR (Biacore); KD of GpH7-TA7/GpH7-B78/GpL16-k0 for FcγRIIIa divided by the KD of this antibody
T2 construct: extracellular domain; Soluble extracellular domain with a C-terminal His tag, expressed in FreeStyle293 cells and used as the analyte in Biacore; also called FcgRIIIa; CD16A; not shown: His tag attached to the C terminus
Procedure: Then, K334G was also assessed in the same manner. GpH7-TA40 (SEQ ID NO: 47) resulting from the introduction of K334G into GpH7-TA7 was constructed, and expressed and prepared in combination with GpH7-B78 according to the method described in Reference Example 1. Furthermore, GpH7-TA50 (SEQ ID NO: 48) resulting from the introduction of K334G into GpH7-B78 was constructed, and expressed and prepared in combination with GpH7-TA7 according to the method described in Reference Example 1. To assess the effect of combinations with K334G, the prepared antibodies were compared for the FcγRIIIa binding according to the method described in Reference Example 2 (Table 18).
as §1, with “To regenerate and repeatedly use the chip, the antibodies captured on the chip were washed off by reacting 10 mM glycine-HCl, pH 1.5.” left out
T2 sequence (P08637 17-208): as the sequence (P08637 17-208) above

Row | Binder | FcγRIa-binding activity relative to GpH7-A5/GpH7-B3/GpL16-k0 (FcγRIa) [fold] | KD ratio (FcγRIIIa [3]) | also measured
1 | B1 |  |  | KD ratio (FcγRIIIa [1]): 3.2 fold; KD ratio (FcγRIIIa [2]): 1 fold
2 | B2 | ≤ 0.2 |  | 
3 | B3 | ≤ 0.2 |  | 
4 | B4 |  | 0.5 | 
5 | B5 |  | 1.2 | 

Reference: patent US20150344570A1 (published 2015)
